This is an account of results in paper PMC8164048.

For test [1], the target named is Full-length human low-density lipoprotein receptor-related protein 1 (LRP1) (human) (UniProt Q07954). Description: SPR; full-length LRP1 coupled to the chip (Biacore 3000); single-cycle kinetic titration of tau forms (3.8, 11.5, 34.4, 103.3, 310 nM, 3.5-min injections), with Ca2+; Req from a pseudo first-order fit plotted against concentration, KD by nonlinear regression. For orientation: In SPR one partner is held on a chip, and binding of the other changes the refractive index at the surface.
UniProt Q07954, sequence (Q07954 20-4544): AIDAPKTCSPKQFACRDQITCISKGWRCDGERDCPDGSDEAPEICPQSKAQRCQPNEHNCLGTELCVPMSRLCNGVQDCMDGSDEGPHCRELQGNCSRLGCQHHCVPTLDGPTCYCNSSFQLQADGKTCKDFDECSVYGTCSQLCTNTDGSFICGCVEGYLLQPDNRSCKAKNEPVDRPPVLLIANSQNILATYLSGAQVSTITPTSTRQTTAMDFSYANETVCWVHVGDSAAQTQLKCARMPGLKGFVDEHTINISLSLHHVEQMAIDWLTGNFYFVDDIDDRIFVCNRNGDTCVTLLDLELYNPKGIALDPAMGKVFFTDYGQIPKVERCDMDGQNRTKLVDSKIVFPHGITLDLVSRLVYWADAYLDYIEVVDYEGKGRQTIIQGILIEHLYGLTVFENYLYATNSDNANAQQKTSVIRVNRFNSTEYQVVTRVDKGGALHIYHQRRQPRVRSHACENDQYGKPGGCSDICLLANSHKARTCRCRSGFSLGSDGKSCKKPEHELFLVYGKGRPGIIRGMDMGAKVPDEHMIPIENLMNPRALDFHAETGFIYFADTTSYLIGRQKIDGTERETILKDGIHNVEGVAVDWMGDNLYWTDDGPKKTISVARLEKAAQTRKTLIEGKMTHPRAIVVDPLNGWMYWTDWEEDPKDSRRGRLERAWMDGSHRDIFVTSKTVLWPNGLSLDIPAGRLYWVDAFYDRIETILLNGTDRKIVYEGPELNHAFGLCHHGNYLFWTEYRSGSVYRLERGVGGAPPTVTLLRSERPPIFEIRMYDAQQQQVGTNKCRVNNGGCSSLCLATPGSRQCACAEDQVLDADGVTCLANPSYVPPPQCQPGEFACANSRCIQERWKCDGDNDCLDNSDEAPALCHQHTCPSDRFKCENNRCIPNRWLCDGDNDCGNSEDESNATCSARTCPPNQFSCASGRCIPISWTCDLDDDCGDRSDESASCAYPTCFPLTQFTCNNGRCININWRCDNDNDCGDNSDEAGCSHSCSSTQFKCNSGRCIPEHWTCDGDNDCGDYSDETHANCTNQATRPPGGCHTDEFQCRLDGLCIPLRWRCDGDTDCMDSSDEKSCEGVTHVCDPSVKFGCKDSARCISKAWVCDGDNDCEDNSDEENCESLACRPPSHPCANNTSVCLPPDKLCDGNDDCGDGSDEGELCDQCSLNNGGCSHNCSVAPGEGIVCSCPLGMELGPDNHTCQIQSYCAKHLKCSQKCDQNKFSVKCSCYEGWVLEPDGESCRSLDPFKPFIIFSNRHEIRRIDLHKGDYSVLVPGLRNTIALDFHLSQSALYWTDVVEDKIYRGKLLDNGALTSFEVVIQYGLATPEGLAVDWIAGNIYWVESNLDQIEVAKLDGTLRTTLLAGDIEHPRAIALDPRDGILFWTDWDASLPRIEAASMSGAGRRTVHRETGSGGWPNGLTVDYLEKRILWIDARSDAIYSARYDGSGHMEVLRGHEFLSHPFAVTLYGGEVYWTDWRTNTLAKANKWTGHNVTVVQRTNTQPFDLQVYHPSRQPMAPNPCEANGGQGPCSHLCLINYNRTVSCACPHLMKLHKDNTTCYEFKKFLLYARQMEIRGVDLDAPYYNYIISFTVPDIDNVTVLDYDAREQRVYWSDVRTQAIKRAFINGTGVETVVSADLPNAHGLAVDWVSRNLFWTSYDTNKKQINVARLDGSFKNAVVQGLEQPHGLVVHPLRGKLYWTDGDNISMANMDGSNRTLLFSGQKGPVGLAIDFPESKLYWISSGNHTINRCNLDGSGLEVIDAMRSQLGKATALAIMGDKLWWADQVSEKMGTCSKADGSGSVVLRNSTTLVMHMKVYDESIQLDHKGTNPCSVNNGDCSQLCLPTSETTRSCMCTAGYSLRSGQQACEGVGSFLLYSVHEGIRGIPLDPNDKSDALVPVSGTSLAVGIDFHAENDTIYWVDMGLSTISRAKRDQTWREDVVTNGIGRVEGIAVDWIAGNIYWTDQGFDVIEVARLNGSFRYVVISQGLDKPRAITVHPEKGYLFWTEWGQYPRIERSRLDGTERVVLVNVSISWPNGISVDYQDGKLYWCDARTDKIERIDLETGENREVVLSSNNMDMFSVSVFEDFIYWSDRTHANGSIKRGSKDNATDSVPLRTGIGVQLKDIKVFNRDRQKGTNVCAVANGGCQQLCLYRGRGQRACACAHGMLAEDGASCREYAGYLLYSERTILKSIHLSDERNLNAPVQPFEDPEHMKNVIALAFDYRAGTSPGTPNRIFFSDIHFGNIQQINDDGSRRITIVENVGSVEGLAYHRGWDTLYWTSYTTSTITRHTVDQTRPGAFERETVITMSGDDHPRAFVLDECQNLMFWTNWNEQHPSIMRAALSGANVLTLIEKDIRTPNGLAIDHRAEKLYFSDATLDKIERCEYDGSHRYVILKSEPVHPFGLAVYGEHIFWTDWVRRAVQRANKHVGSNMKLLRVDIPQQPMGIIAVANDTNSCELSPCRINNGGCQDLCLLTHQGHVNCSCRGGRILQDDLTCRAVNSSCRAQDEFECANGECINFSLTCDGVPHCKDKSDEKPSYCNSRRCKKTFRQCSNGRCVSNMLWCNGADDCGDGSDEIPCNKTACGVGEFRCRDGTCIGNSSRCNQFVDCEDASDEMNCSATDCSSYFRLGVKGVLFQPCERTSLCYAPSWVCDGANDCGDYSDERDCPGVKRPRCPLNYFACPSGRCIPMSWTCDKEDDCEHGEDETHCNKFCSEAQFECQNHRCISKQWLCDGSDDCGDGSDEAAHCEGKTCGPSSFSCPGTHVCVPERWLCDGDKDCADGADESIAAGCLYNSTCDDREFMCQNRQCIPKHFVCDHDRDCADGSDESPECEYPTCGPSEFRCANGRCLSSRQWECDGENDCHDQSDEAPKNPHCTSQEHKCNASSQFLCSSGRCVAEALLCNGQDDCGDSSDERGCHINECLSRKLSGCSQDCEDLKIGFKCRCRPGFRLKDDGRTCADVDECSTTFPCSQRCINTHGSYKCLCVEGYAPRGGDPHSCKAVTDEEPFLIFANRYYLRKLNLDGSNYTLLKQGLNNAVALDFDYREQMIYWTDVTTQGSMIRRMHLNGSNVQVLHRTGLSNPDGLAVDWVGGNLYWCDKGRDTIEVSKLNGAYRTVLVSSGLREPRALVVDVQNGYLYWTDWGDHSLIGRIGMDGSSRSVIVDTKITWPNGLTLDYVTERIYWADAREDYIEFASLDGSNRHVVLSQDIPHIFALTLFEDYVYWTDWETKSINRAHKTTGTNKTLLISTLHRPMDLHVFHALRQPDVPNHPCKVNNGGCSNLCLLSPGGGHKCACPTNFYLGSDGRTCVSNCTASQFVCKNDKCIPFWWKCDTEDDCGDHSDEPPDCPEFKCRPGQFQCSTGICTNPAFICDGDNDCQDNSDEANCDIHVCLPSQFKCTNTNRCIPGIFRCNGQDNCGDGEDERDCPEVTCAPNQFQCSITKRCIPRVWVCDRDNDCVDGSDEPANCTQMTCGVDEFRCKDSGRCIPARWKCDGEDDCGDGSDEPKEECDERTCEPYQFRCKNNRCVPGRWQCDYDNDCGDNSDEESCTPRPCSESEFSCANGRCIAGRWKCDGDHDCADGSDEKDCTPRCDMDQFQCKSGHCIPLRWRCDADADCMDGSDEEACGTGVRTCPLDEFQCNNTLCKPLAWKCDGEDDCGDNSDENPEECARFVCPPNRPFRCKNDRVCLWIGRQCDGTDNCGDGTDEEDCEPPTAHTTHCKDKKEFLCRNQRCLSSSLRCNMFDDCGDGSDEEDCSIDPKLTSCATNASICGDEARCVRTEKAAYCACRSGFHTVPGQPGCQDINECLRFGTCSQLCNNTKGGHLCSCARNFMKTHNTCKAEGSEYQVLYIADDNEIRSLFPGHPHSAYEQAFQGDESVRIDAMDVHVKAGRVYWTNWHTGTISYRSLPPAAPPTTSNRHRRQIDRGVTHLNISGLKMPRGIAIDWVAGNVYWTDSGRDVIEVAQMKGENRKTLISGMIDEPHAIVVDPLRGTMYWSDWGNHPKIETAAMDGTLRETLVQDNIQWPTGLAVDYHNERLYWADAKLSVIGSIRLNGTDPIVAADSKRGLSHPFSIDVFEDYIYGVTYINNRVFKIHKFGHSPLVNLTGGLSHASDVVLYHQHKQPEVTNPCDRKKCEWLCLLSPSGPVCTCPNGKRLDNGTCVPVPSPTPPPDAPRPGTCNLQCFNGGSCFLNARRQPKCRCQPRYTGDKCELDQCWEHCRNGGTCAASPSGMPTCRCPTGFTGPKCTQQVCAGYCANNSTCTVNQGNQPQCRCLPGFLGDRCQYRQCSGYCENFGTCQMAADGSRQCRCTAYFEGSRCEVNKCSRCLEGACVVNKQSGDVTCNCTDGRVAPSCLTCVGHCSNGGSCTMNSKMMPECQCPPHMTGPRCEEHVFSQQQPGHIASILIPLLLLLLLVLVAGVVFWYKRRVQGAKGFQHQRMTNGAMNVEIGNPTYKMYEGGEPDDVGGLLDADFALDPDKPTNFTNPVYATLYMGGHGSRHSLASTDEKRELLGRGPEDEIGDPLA

Test [2] shares this target. Description: SPR; LRP1-coupled chip; lipid-free apoE isoforms injected at 52, 104, 208, 417, 834, 1668 nM; association and dissociation fit globally to a bivalent binding model; KD = 1/KA, KA = (ka1/kd1)*(1+(ka2/kd2)).
For test [3] the target is unchanged. The experiment in a line: SPR; LRP1-coupled chip; lipid-free apoE isoforms; equilibrium analysis, Req from a pseudo first-order fit of the association data.

For 9XKQ 2N4R tau (natural protein), the Kd in test [1] came to 372 nM.
For “Recombinant human apolipoprotein E2 (lipid-free) (from UniProt P02649 19-317) (ligand)”, in test [2], the Kd stood at 529 nM, the ka1 was found to be 34000 M⁻¹ s⁻¹, the ka2 stood at 0.01 s⁻¹ and the kd1 was found to be 0.086 s⁻¹. This substance yielded a kd2 in test [2] of 0.0028 s⁻¹. In test [3], this substance came in with a Kd of 493 nM.
In test [2], “Recombinant human apolipoprotein E4 (lipid-free) (from UniProt P02649 19-317) (ligand)” gave a Kd of 202 nM, a ka1 of 62000 M⁻¹ s⁻¹, a ka2 of 0.0099 s⁻¹ and a kd1 of 0.065 s⁻¹. The substance also displayed a kd2 in test [2] of 0.0027 s⁻¹. Also, in test [3], the Kd was 236 nM.
